Target: 3-ketomyristoyl-ACP (enzymatically prepared from ShACP)

B1: ShMKS1 (methylketone synthase 1 from Solanum habrochaites f glabratum), recombinant, His-tagged (protein)
chain: MEKSMSPFVKKHFVLVHTAFHGAWCWYKIVALMRSSGHNVTALDLGASGINPKQALQIPNFSDYLSPLMEFMASLPANEKIILVGHALGGLAISKAMETFPEKISVAVFLSGLMPGPNIDATTVCTKAGSAVLGQLDNCVTYENGPTNPPTTLIAGPKFLATNVYHLSPIEDLALATALVRPLYLYLAEDISKEVVLSSKRYGSVKRVFIVATENDALKKEFLKLMIEKNPPDEVKEIEGSDHVTMMSKPQQLFTTLLSIANKYK
  amount of 2-tridecanone formed (in vitro thioesterase activity assay, direct hexane extraction, GC-MS): slightly higher, but not significantly so (t test, p=0.062, α=0.05), than the amount found in the buffer-incubated sample treated with acid and heat

Source: patent publication US20110289632
